Experimental data: US20240010683A1, “Peptide Inhibitors of Human Mitochondrial Fission Protein 1 and Methods of Use” (The Medical College of Wisconsin, Inc., priority 2020, published 2024)
“And” between values parts separate entries of the source, which are not always exact repeats. Equal entries are not always repeated.

Biological target: T1, recombinant human mitochondrial fission protein 1 (Fis1) (human), Q9Y3D6
T1 chain: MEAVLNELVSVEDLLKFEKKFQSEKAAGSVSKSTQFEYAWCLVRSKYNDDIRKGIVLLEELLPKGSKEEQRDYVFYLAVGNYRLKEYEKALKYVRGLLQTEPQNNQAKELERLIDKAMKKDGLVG

SHKHDPLPYPHFLL (modifications not checked) [pep213]
Kd: 7 µM and 3.3 µM
